In US5744166A, “Drug delivery compositions” (Danbiosyst UK Limited, priority 1989, dated 1998):

Tests used:
[1] = Intranasal absorption of insulin solutions in anaesthetised rats: blood glucose; format: in vivo, rat (male Wistar); details: phosphate buffer pH 7.3; for Blood Glucose Levels: 120 minutes after intranasal administration, 16.7 IU/kg insulin, level at administration about 3.5 to 4.0
Experimental: A rat in vivo experimental model, modified from that originally described by Hirai et al., Int. […] Male Wistar rats (Bantin and Kingman) of approximate weight 200-250 g, fasted overnight for about 20 hours, are anesthetized by i.p. injection of 80 mg/kg pentobarbitone sodium (60 mg/ml Sagatal™, May and Baker) with further i.p. injections of 0.05 ml when necessary to maintain a suitable level of anaesthesia. The rats are tracheotomized, the esophagus sealed and the carotid artery and jugular vein cannulated.
The DEAE-dextran used in these experiments has a molecular weight of 500,000.
This will give the same end solutions. […] An insulin solution containing the Laureth-9 enhancer system was prepared in a similar way.
A volume of 20 μl was administered.
Blood samples of 0.2 ml were collected in Fluoride oxalate tubes from the carotid artery at 10 and 5 min. prior to the insulin administration and at 5, 15, 30, 45, 60, 90, 120, 180, 240 and 300 min. post-administration. The samples were kept for a short time on crushed ice until analyzed on a Yellow Springs 23 AM glucose analyser by the glucose oxidase method.

[2] = Effect of pH on insulin/DEAE-dextran solutions (pH and appearance); format: physicochemical
Experimental: Solutions containing DEAE-Dextran 1% w/v and Na-Insulin 167 IU/ml were prepared, separately and combined, in phosphate buffer (pH 7.3) and their pH measured using a Gallenkamp pH stick. The appearance of each solution was noted. The effect of addition of 1M sodium hydroxide solution (NaOH) or 0.1M hydrochloric acid (HCl) was determined.

With “Insulin alone: semisynthetic human Na-insulin, 167 IU/ml in phosphate buffer” the “Blood Glucose Levels” value [1] was about 5.1 mmol/L, the “Blood Glucose Levels” value ([1]; listed as insulin solution alone) was “about 5 mmol/l” and the “effect on blood glucose level (in words)” value ([1]; intranasal) was “does not significantly lower the blood glucose level”. For the same substance, the “pH at which solution became turbid on addition of acid” value ([2]; 0.1M HCl) was 6.65, the “pH at which solution cleared / was clear on addition of acid” value ([2]; 0.1M HCl) was 4.14 and the “appearance on addition of 1.0M NaOH” value ([2]; 1.0M NaOH) was “no effect on solution appearance which remained clear”. The pH of solution ([2]; DEAE-dextran 1% w/v and/or Na-insulin 167 IU/ml in phosphate buffer (pH 7.3)) was 7.38 and the appearance of solution ([2]; as prepared in phosphate buffer, no acid or base added) was “clear”.
